What was measured:
[1] = target: the molecule itself; experiment: two-colour quantum dot labeling of Rdh54 complexes on DNA curtains, TIRFM colocalisation (self-association)
[2] = target: the molecule itself; experiment: cryo-electron microscopy of fluorescent Rad51 (self-association into rings)
Description: The biochemically active form of Rad51 and related recombinases is an extended helical filament bound to DNA (P8, P33). Cyro-electron microscopy was used to determine whether the fluorescently tagged version of Rad51 formed structures consistent with the known forms of the wild-type protein. First, fluorescent Rad51 was mixed with double-stranded, linearized φX174 in the presence of ATP. The reaction mixes were then applied to a carbon-coated grid, flash frozen in liquid ethane, and visualized with cryo-EM (P9). […] In addition, the protein that was not bound to the DNA molecules was present as a ring-like structure, as previously reported (P16). Rad511 and several closely related proteins, are known to form ring-like structures under various reaction conditions and it is thought that these rings contain from 6-8 monomers of protein (P13-P15, P34, P35).

B1: Rdh54 (Rad homolog 54), yeast Snf2-related homologous recombination factor (enzyme, UniProt P38086 1-958, looked up)
chain: MAVISVKPRRREKILQEVKNSSVYQTVFDSGTTQMQIPKYENKPFKPPRRVGSNKYTQLKPTATAVTTAPISKAKVTVNLKRSISAGPTLNLAKKPNNLSSNENTRYFTIMYRKPTTKKHKTWSGDGYATLKASSDKLCFYNEAGKFLGSSMLPSDSDSLFETLFKAGSNEVQLDYELKENAEIRSAKEALSQNMGNPSPPTTSTTETVPSTKNDGGKYQMPLSQLFSLNTVKRFKSVTKQTNEHMTTVPKTSQNSKAKKYYPVFDVNKIDNPIVMNKNAAAEVDVIVDPLLGKFLRPHQREGVKFMYDCLMGLARPTIENPDIDCTTKSLVLENDSDISGCLLADDMGLGKTLMSITLIWTLIRQTPFASKVSCSQSGIPLTGLCKKILVVCPVTLIGNWKREFGKWLNLSRIGVLTLSSRNSPDMDKMAVRNFLKVQRTYQVLIIGYEKLLSVSEELEKNKHLIDMLVCDEGHRLKNGASKILNTLKSLDIRRKLLLTGTPIQNDLNEFFTIIDFINPGILGSFASFKRRFIIPITRARDTANRYNEELLEKGEERSKEMIEITKRFILRRTNAILEKYLPPKTDIILFCKPYSQQILAFKDILQGARLDFGQLTFSSSLGLITLLKKVCNSPGLVGSDPYYKSHIKDTQSQDSYSRSLNSGKLKVLMTLLEGIRKGTKEKVVVVSNYTQTLDIIENLMNMAGMSHCRLDGSIPAKQRDSIVTSFNRNPAIFGFLLSAKSGGVGLNLVGASRLILFDNDWNPSVDLQAMSRIHRDGQKKPCFIYRLVTTGCIDEKILQRQLMKNSLSQKFLGDSEMRNKESSNDDLFNKEDLKDLFSVHTDTKSNTHDLICSCDGLGEEIEYPETNQQQNTVELRKRSTTTWTSALDLQKKMNEAATNDDAKKSQYIRQCLVHYKHIDPARQDELFDEVITDSFTELKDSITFAFVKPGEICLREQ
notes: also called Tid1
B1: binds [1].

B2: fluorescently tagged human Rad51 (A11C Rad51 labeled with Alexa Fluor 555-maleimide) (enzyme, UniProt Q06609 1-339, looked up)
chain: MAMQMQLEANCDTSVEEESFGPQPISRLEQSGINANDVKKLEEAGFHTVEAVAYAPKKELINIKGISEAKADKILAEAAKLVPMGFTTATEFHQRRSEIIQITTGSKELDKLLQGGIETGSITEMFGEFRTGKTQICHTLAVTCQLPIDRGGGEGKAMYIDTEGTFRPERLLAVAERYGLSGSDVLDNVAYARAFNTDHQTQLLYQASAMMVESRYALLIVDSATALYRTDYSGRGELSARQMHLARFLRMLLRLADEFGVAVVITNQVVAQVDGAAMFAADPKKPIGGNIIAHASTTRLYLRKGRGETRISKIYDSPSLPEAEAMFAINADGVGDAKD
modifications: Alexa Fluor 555-maleimide on Cys 11 (A11C)
notes: also called fluorescent Rad51; Alexa Fluor 555-Rad51
B2: binds [2].
